The target in one assay is T1, hIgG1 Fc (Ig) (human, UniProt P01857-1 99-330 = IgG part, limits assumed).
T1 construct: domain: hIgG1 Fc; Control for Ig-Mincle; also called control Ig
Description: pull-down from 2B4 dead cell lysate with Ig on Protein G Sepharose, silver staining, no Ca2+.

For assay [1], the target named is damaged-DNA binding protein 1 (DDB1) (UniProt Q3U1J4 2-1140). Nature of the assay: pull-down from 2B4 dead cell lysate, immunoblot with anti-DDB1. A general note: A western blot detects proteins with antibodies after separation by electrophoresis.
Chain of damaged-DNA binding protein 1 (DDB1) (Q3U1J4 2-1140 limits assumed): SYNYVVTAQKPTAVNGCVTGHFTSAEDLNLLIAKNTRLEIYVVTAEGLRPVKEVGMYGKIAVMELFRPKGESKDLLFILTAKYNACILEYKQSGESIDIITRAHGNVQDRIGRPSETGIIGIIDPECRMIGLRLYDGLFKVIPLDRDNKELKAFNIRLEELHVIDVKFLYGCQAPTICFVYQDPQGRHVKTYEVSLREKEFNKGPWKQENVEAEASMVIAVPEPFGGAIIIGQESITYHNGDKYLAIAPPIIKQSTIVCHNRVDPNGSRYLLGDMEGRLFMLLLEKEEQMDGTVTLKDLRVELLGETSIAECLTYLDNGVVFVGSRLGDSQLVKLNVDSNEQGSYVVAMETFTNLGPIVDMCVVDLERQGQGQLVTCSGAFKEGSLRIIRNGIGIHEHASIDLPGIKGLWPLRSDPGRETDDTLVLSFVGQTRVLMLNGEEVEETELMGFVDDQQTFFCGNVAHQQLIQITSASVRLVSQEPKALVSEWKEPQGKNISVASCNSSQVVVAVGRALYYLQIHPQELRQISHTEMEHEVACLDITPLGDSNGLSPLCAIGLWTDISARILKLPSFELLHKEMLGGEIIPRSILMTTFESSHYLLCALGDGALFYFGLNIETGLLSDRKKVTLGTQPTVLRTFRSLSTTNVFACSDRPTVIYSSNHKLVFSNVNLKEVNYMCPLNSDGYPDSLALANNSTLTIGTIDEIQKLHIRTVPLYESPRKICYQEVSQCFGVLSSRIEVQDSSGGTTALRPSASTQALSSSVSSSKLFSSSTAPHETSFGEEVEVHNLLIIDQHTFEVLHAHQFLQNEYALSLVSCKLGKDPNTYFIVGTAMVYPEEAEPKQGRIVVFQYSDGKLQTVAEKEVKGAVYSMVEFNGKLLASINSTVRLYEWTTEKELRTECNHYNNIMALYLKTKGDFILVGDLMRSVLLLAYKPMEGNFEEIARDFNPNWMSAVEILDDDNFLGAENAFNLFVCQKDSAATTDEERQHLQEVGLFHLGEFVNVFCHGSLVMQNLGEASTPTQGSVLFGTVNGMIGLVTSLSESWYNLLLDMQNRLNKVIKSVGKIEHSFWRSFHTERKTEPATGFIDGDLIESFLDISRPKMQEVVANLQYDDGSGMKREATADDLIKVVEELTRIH
The target of assay [2] is T2, High mobility group box 1 (HMGB1) (UniProt P63158 1-215).
T2 sequence (looked up): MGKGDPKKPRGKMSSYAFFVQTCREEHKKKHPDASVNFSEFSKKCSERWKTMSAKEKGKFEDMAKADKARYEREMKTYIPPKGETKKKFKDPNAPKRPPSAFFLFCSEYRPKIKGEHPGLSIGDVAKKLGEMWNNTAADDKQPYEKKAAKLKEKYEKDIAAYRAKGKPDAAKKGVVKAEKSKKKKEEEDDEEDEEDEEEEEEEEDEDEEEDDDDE
Nature of the assay: pull-down from 2B4 cell lysate, immunoblot with anti-HMGB1.

Assay [3] deals with T3, mouse Mincle (Macrophage inducible C-type lectin) (mouse, UniProt Q9R0Q8 1-214).
T3 construct: whole, on cells; Expressed from cDNA in 293T, 2B4 and RBL-2H3 cells, or endogenous in mouse peritoneal macrophages; also called Clec4e; Clecsf9
T3 sequence (looked up): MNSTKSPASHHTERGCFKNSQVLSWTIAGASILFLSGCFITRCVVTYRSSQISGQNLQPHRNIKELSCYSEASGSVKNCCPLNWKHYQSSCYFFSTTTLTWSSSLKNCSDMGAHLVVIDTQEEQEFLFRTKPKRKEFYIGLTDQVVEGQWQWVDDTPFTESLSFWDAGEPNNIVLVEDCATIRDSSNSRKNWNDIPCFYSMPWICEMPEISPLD
Description: immunoprecipitation with anti-Mincle polyclonal antibody from macrophage lysate, anti-FcRγ blot.

B1: spliceosome-binding protein 130 (SAP130) from 2B4 cell lysate (ligand, UniProt Q921M3 1-1217, looked up)
chain: MFLYNLTLQRATGISFAIHGNFSGTKQQEIVVSRGKILELLRPDPNTGKVHTLLTVEVFGVIRSLMAFRLTGGTKDYIVVGSDSGRIVILEYQPSKNMFEKIHQETFGKSGCRRIVPGQFLAVDPKGRAVMISAIEKQKLVYILNRDAAARLTISSPLEAHKANTLVYHVVGVDVGFENPMFACLEMDYEEADNDPTGEAAANTQQTLTFYELDLGLNHVVRKYSEPLEEHGNFLITVPGGSDGPSGVLICSENYITYKNFGDQPDIRCPIPRRRNDLDDPERGMIFVCSATHKTKSMFFFLAQTEQGDIFKITLETDEDMVTEIRLKYFDTVPVAAAMCVLKTGFLFVASEFGNHYLYQIAHLGDDDEEPEFSSAMPLEEGDTFFFQPRPLKNLVLVDELDSLSPILFCQIADLANEDTPQLYVACGRGPRSSLRVLRHGLEVSEMAVSELPGNPNAVWTVRRHIEDEFDAYIIVSFVNATLVLSIGETVEEVTDSGFLGTTPTLSCSLLGDDALVQVYPDGIRHIRADKRVNEWKTPGKKTIVKCAVNQRQVVIALTGGELVYFEMDPSGQLNEYTERKEMSADVVCMSLANVPPGEQRSRFLAVGLVDNTVRIISLDPSDCLQPLSMQALPAQPESLCIVEMGGTEKQDELGERGSIGFLYLNIGLQNGVLLRTVLDPVTGDLSDTRTRYLGSRPVKLFRVRMQGQEAVLAMSSRSWLSYSYQSRFHLTPLSYETLEFASGFASEQCPEGIVAISTNTLRILALEKLGAVFNQVAFPLQYTPRKFVIHPESNNLIIIETDHNAYTEATKAQRKQQMAEEMVEAAGEDERELAAEMAAAFLNENLPESIFGAPKAGNGQWASVIRVMNPIQGNTLDLVQLEQNEAAFSVAVCRFSNTGEDWYVLVGVAKDLILSPRSVAGGFVYTYKLVNNGEKLEFLHKTPVEEVPAAIAPFQGRVLIGVGKLLRVYDLGKKKLLRKCENKHIANYISGIQTIGHRVIVSDVQESFIWVRYKRNENQLIIFADDTYPRWVTTASLLDYDTVAGADKFGNICVVRLPPNTNDEVDEDPTGNKALWDRGLLNGASQKAEVIMNYHVGETVLSLQKTTLIPGGSESLVYTTLSGGIGILVPFTSHEDHDFFQHVEMHLRSEHPPLCGRDHLSFRSYYFPVKNVIDGDLCEQFNSMEPNKQKNVSEELDRTPPEVSKKLEDIRTRYAF
notes: also called Sf3b3; 130-kD protein
As for B1, the binding result with hIgG1 Fc (Ig) is “no binding”.

B2: hIgG1 Fc-Mincle fusion protein (Ig-Mincle) (Fc fusion, mouse, UniProt Q9R0Q8 46-214, looked up)
chain: TYRSSQISGQNLQPHRNIKELSCYSEASGSVKNCCPLNWKHYQSSCYFFSTTTLTWSSSLKNCSDMGAHLVVIDTQEEQEFLFRTKPKRKEFYIGLTDQVVEGQWQWVDDTPFTESLSFWDAGEPNNIVLVEDCATIRDSSNSRKNWNDIPCFYSMPWICEMPEISPLD
notes: range 46-214; also called soluble Mincle protein; not shown: human IgG1 Fc region (hIgG Fc lacking a termination codon, from pME18S-SLAMsig-hIgG Fc)
With B2, the binding result in assay [1] and in assay [2] was “no binding” in each case.

B3: endogenous FcRγ of mouse peritoneal macrophages (receptor, UniProt P20491 19-86, looked up)
chain: LGEPQLCYILDAVLFLYGIVLTLLYCRLKIQVRKAAIASREKADAVYTGLNTRSQETYETLKHEKPPQ
notes: whole, on cells; Co-immunoprecipitated from the lysate of thioglycolate-induced, LPS-stimulated peritoneal macrophages
For the molecule B3, in assay [3], the binding result is given as “binds”.

The values are drawn from patent US20110177084A1 (RIKEN, published 2011).
